Data from the supplement of paper PMC10567573.

B1: CPXM2 (parent)
chain: TASTKNCMVGYDMGATRCDFTLSK
B2: MLL5 (parent)
chain: HDDGYMICCDKCSVWQHIDCMGID

Variants of: B1
Experiment: protein stability index of a GFP-peptide fusion (GPS, HEK-293T) (PSI 1-6); higher = more stable
Conditions: c terminus: a fixed tail appended
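Further: lentivirally expressed fusions sorted by FACS into six bins by GFP to DsRed ratio, PSI derived from sequencing read proportions per bin multiplied by bin number.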

**Q.** For TAETKNCMVGYDMGATRCDFTLSK [S3E], which protein stability index is on record?
**A.** 3.06

**Q.** Which protein stability index does the source give for TAFTKNCMVGYDMGATRCDFTLSK [S3F] here?
**A.** 1.63

**Q.** Which protein stability index does the source give for TAATKNCMVGYDMGATRCDFTLSK [S3A] here?
**A.** 2.3

**Q.** For TACTKNCMVGYDMGATRCDFTLSK [S3C], which protein stability index is on record?
**A.** 2.08

**Q.** With TAGTKNCMVGYDMGATRCDFTLSK [S3G] as the variant, how does the protein stability index read?
**A.** 2.47

**Q.** With TADTKNCMVGYDMGATRCDFTLSK [S3D] as the variant, how does the protein stability index read?
**A.** 3.57

**Q.** Which protein stability index does the source give for MASTKNCMVGYDMGATRCDFTLSK [T1M] here?
**A.** 2.45

**Q.** Which protein stability index does the source give for EASTKNCMVGYDMGATRCDFTLSK [T1E] here?
**A.** 3.37

**Q.** With YASTKNCMVGYDMGATRCDFTLSK [T1Y] as the variant, how does the protein stability index read?
**A.** 1.71

**Q.** Which protein stability index does the source give for KASTKNCMVGYDMGATRCDFTLSK [T1K] here?
**A.** 2.05

**Q.** Which protein stability index does the source give for VASTKNCMVGYDMGATRCDFTLSK [T1V] here?
**A.** 1.61

**Q.** Which protein stability index does the source give for IASTKNCMVGYDMGATRCDFTLSK [T1I] here?
**A.** 1.8

**Q.** For HASTKNCMVGYDMGATRCDFTLSK [T1H], which protein stability index is on record?
**A.** 1.82

**Q.** For GASTKNCMVGYDMGATRCDFTLSK [T1G], which protein stability index is on record?
**A.** 1.88

**Q.** For NASTKNCMVGYDMGATRCDFTLSK [T1N], which protein stability index is on record?
**A.** 2.51

**Q.** For CASTKNCMVGYDMGATRCDFTLSK [T1C], which protein stability index is on record?
**A.** 1.68

**Q.** With WASTKNCMVGYDMGATRCDFTLSK [T1W] as the variant, how does the protein stability index read?
**A.** 1.59

**Q.** For PASTKNCMVGYDMGATRCDFTLSK [T1P], which protein stability index is on record?
**A.** 2.1

**Q.** For DASTKNCMVGYDMGATRCDFTLSK [T1D], which protein stability index is on record?
**A.** 3.69

**Q.** For QASTKNCMVGYDMGATRCDFTLSK [T1Q], which protein stability index is on record?
**A.** 2.52

**Q.** For LASTKNCMVGYDMGATRCDFTLSK [T1L], which protein stability index is on record?
**A.** 2.18

**Q.** For AASTKNCMVGYDMGATRCDFTLSK [T1A], which protein stability index is on record?
**A.** 2.66

**Q.** For SASTKNCMVGYDMGATRCDFTLSK [T1S], which protein stability index is on record?
**A.** 2.86

**Q.** With RASTKNCMVGYDMGATRCDFTLSK [T1R] as the variant, how does the protein stability index read?
**A.** 1.92

**Q.** Which protein stability index does the source give for TTSTKNCMVGYDMGATRCDFTLSK [A2T] here?
**A.** 2.06

**Q.** Which protein stability index does the source give for TNSTKNCMVGYDMGATRCDFTLSK [A2N] here?
**A.** 3.16

**Q.** With TESTKNCMVGYDMGATRCDFTLSK [A2E] as the variant, how does the protein stability index read?
**A.** 3.9

**Q.** For TSSTKNCMVGYDMGATRCDFTLSK [A2S], which protein stability index is on record?
**A.** 2.58

**Q.** Which protein stability index does the source give for TVSTKNCMVGYDMGATRCDFTLSK [A2V] here?
**A.** 2.21

**Q.** For TISTKNCMVGYDMGATRCDFTLSK [A2I], which protein stability index is on record?
**A.** 1.8

**Q.** Which protein stability index does the source give for TYSTKNCMVGYDMGATRCDFTLSK [A2Y] here?
**A.** 2.31

**Q.** With TWSTKNCMVGYDMGATRCDFTLSK [A2W] as the variant, how does the protein stability index read?
**A.** 1.73

**Q.** Which protein stability index does the source give for TFSTKNCMVGYDMGATRCDFTLSK [A2F] here?
**A.** 2.58

**Q.** For TQSTKNCMVGYDMGATRCDFTLSK [A2Q], which protein stability index is on record?
**A.** 2.94

**Q.** Which protein stability index does the source give for TPSTKNCMVGYDMGATRCDFTLSK [A2P] here?
**A.** 3.08

**Q.** For TCSTKNCMVGYDMGATRCDFTLSK [A2C], which protein stability index is on record?
**A.** 1.64

**Q.** With TGSTKNCMVGYDMGATRCDFTLSK [A2G] as the variant, how does the protein stability index read?
**A.** 2.91

**Q.** With THSTKNCMVGYDMGATRCDFTLSK [A2H] as the variant, how does the protein stability index read?
**A.** 2.26

**Q.** Which protein stability index does the source give for TKSTKNCMVGYDMGATRCDFTLSK [A2K] here?
**A.** 2.04

**Q.** For TDSTKNCMVGYDMGATRCDFTLSK [A2D], which protein stability index is on record?
**A.** 3.75

**Q.** With TRSTKNCMVGYDMGATRCDFTLSK [A2R] as the variant, how does the protein stability index read?
**A.** 2.68

**Q.** Which protein stability index does the source give for TLSTKNCMVGYDMGATRCDFTLSK [A2L] here?
**A.** 1.99

**Q.** For TMSTKNCMVGYDMGATRCDFTLSK [A2M], which protein stability index is on record?
**A.** 2.41

Variants of: B2
Experiment: as above
Conditions: c terminus: a fixed tail appended

**Q.** For HDDGYMICCDKCSVWQHIDCMGVD [I23V], which protein stability index is on record?
**A.** 2.95

**Q.** For HDDGYMICCDKCSVWQHIDCMGTD [I23T], which protein stability index is on record?
**A.** 2.85

**Q.** With HDDGYMICCDKCSVWQHIDCMGYD [I23Y] as the variant, how does the protein stability index read?
**A.** 2.34

**Q.** Which protein stability index does the source give for HDDGYMICCDKCSVWQHIDCMGAD [I23A] here?
**A.** 2.56

**Q.** Which protein stability index does the source give for HDDGYMICCDKCSVWQHIDCMGGD [I23G] here?
**A.** 2.95

**Q.** Which protein stability index does the source give for HDDGYMICCDKCSVWQHIDCMGWD [I23W] here?
**A.** 1.77

**Q.** Which protein stability index does the source give for HDDGYMICCDKCSVWQHIDCMGQD [I23Q] here?
**A.** 2.89

**Q.** Which protein stability index does the source give for HDDGYMICCDKCSVWQHIDCMGND [I23N] here?
**A.** 2.52

**Q.** Which protein stability index does the source give for HDDGYMICCDKCSVWQHIDCMGSD [I23S] here?
**A.** 2.58

**Q.** For HDDGYMICCDKCSVWQHIDCMGHD [I23H], which protein stability index is on record?
**A.** 3.15

**Q.** With HDDGYMICCDKCSVWQHIDCMGRD [I23R] as the variant, how does the protein stability index read?
**A.** 2.83

**Q.** Which protein stability index does the source give for HDDGYMICCDKCSVWQHIDCMGLD [I23L] here?
**A.** 2.57

**Q.** For HDDGYMICCDKCSVWQHIDCMGDD [I23D], which protein stability index is on record?
**A.** 2.71

**Q.** With HDDGYMICCDKCSVWQHIDCMGKD [I23K] as the variant, how does the protein stability index read?
**A.** 2.99

**Q.** Which protein stability index does the source give for HDDGYMICCDKCSVWQHIDCMGCD [I23C] here?
**A.** 3.67

**Q.** With HDDGYMICCDKCSVWQHIDCMGED [I23E] as the variant, how does the protein stability index read?
**A.** 3.53

**Q.** Which protein stability index does the source give for HDDGYMICCDKCSVWQHIDCMGPD [I23P] here?
**A.** 2.5

**Q.** With HDDGYMICCDKCSVWQHIDCMGFD [I23F] as the variant, how does the protein stability index read?
**A.** 2.1

**Q.** With HDDGYMICCDKCSVWQHIDCMGMD [I23M] as the variant, how does the protein stability index read?
**A.** 2.36

**Q.** For HDDGYMICCDKCSVWQHIDCMNID [G22N], which protein stability index is on record?
**A.** 2.58

**Q.** Which protein stability index does the source give for HDDGYMICCDKCSVWQHIDCMVID [G22V] here?
**A.** 1.59

**Q.** Which protein stability index does the source give for HDDGYMICCDKCSVWQHIDCMWID [G22W] here?
**A.** 2.06

**Q.** For HDDGYMICCDKCSVWQHIDCMIID [G22I], which protein stability index is on record?
**A.** 2.06

**Q.** For HDDGYMICCDKCSVWQHIDCMLID [G22L], which protein stability index is on record?
**A.** 1.81

**Q.** For HDDGYMICCDKCSVWQHIDCMTID [G22T], which protein stability index is on record?
**A.** 2.19

**Q.** For HDDGYMICCDKCSVWQHIDCMHID [G22H], which protein stability index is on record?
**A.** 2.79

**Q.** For HDDGYMICCDKCSVWQHIDCMCID [G22C], which protein stability index is on record?
**A.** 3.79

**Q.** With HDDGYMICCDKCSVWQHIDCMFID [G22F] as the variant, how does the protein stability index read?
**A.** 2.04

**Q.** For HDDGYMICCDKCSVWQHIDCMQID [G22Q], which protein stability index is on record?
**A.** 2.17

**Q.** Which protein stability index does the source give for HDDGYMICCDKCSVWQHIDCMYID [G22Y] here?
**A.** 2.24

**Q.** For HDDGYMICCDKCSVWQHIDCMRID [G22R], which protein stability index is on record?
**A.** 2.43

**Q.** For HDDGYMICCDKCSVWQHIDCMSID [G22S], which protein stability index is on record?
**A.** 2.14

**Q.** For HDDGYMICCDKCSVWQHIDCMMID [G22M], which protein stability index is on record?
**A.** 2.25

**Q.** For HDDGYMICCDKCSVWQHIDCMPID [G22P], which protein stability index is on record?
**A.** 2.39

**Q.** Which protein stability index does the source give for HDDGYMICCDKCSVWQHIDCMEID [G22E] here?
**A.** 2.4

**Q.** For HDDGYMICCDKCSVWQHIDCMKID [G22K], which protein stability index is on record?
**A.** 2.78

**Q.** For HDDGYMICCDKCSVWQHIDCMDID [G22D], which protein stability index is on record?
**A.** 3.8

**Q.** With HDDGYMICCDKCSVWQHIDCMAID [G22A] as the variant, how does the protein stability index read?
**A.** 2.2

**Q.** Which protein stability index does the source give for HDDGYMICCDKCSVWQHIDCMGII [D24I] here?
**A.** 2.21

**Q.** With HDDGYMICCDKCSVWQHIDCMGIF [D24F] as the variant, how does the protein stability index read?
**A.** 1.89

**Q.** For HDDGYMICCDKCSVWQHIDCMGIV [D24V], which protein stability index is on record?
**A.** 2.47

**Q.** For HDDGYMICCDKCSVWQHIDCMGIR [D24R], which protein stability index is on record?
**A.** 1.93

**Q.** For HDDGYMICCDKCSVWQHIDCMGIC [D24C], which protein stability index is on record?
**A.** 2.68

**Q.** Which protein stability index does the source give for HDDGYMICCDKCSVWQHIDCMGIP [D24P] here?
**A.** 2

**Q.** With HDDGYMICCDKCSVWQHIDCMGIG [D24G] as the variant, how does the protein stability index read?
**A.** 2.19

**Q.** Which protein stability index does the source give for HDDGYMICCDKCSVWQHIDCMGIN [D24N] here?
**A.** 2.09

**Q.** With HDDGYMICCDKCSVWQHIDCMGIT [D24T] as the variant, how does the protein stability index read?
**A.** 1.94

**Q.** Which protein stability index does the source give for HDDGYMICCDKCSVWQHIDCMGIM [D24M] here?
**A.** 1.56

**Q.** For HDDGYMICCDKCSVWQHIDCMGIS [D24S], which protein stability index is on record?
**A.** 2.35

**Q.** Which protein stability index does the source give for HDDGYMICCDKCSVWQHIDCMGIQ [D24Q] here?
**A.** 2.47

**Q.** Which protein stability index does the source give for HDDGYMICCDKCSVWQHIDCMGIL [D24L] here?
**A.** 2.79
